{"source": "the nanobody polyreactivity screen of Harvey et al. (2022)"}
{"experiment": "yeast display, Sf9 membrane polyspecificity reagent, FACS + sequencing; frameworks hold sequencing errors", "method_in_brief": "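Nanobodies from a synthetic yeast display library (Saccharomyces cerevisiae BJ5465), induced 36–48 hours with galactose, were stained 1 hour at 4 °C with 10% biotinylated, detergent-solubilized Sf9 membrane reagent, enriched on streptavidin microbeads, then FACS-sorted. Anti-HA (expression) and streptavidin (reagent binding) fluorescence set low and high (top ~1%) gates. Polyreactivity labels come from the gate of origin. Genes were colony-PCR amplified, MiSeq 2 × 250 sequenced and filtered by CDR length.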"}
{"sequence": "QVQLVESGGGLVQAGGSLRLSCAASGRTFSSYAMGWYRQAPGKEREFVAAINKNGGSTFYADSVKGRFTISRDNAKNTVYFQMNSLKPEDTAVYYCNADTDWWNPYNYWGQGTQVTVST", "polyreactivity (PSR sort gate)": "low polyreactivity"}
{"sequence": "QVKLVESGGGLVQAGGSLRLSCAASGSTFYQNAMGWYRQAQGKEREFVAAISGSGDRTNYADSVKARFTISRDNAKNTVYLQMNSLKPEDTAVYFCAARGQPGRRTSSGFFSGGYCGQGTQVTVSS", "polyreactivity (PSR sort gate)": "high polyreactivity"}
{"sequence": "QVQLVESGGGLVQAGGSIRLSCAASGITFRPNAMGWYRQAPGKERELVAAISSGDGTYADSVKGRFTISRDNAKNTVYLQMNSLKPEDTAVYYCNATGQSYVTSEYDYWGQGTQVTVSS", "polyreactivity (PSR sort gate)": "low polyreactivity"}
{"sequence": "QVQLVESGGGLVQAGGSLRLSCAAYGRILSLYAMGWYRQAPGKERQLVAAIRWSGSRTYYADSVKGRFTISRDNAKNTVYLQMNSLKPEDTAVYYCAARDSTNLLSGYTHYYWGQGTQVTVSS", "polyreactivity (PSR sort gate)": "high polyreactivity"}
{"sequence": "QVQLVESGGGLVQAGGSLRLSCAASGRTFFIYAMGWYRQAPGKERELVAAITRGGTNYADSVKGRFTISRDNAKNTVYLQMNSLKPEDTAVYYCYTYTYAGYNYWGQGTQVTVSS", "polyreactivity (PSR sort gate)": "high polyreactivity"}
{"sequence": "QVQLVESGGGIVQAGGSLRLSCGASGSIFVTYTMGWYRQAPGKERELVAAITSDGRTYYADSVKGRFTISRDNAKNTVYLQMNCLKPEDTAVYYCAADSSGYYWFNYWGQGTQVTVSS", "polyreactivity (PSR sort gate)": "low polyreactivity"}
{"sequence": "QVQLVESGGGLVQAGGSLRLSCAASGRTFRDYVMGWYRQAPGKERELVAAISTRGASTYYADSVKGRFTISRDYAKNTVYLQMNSLKPEDTAVYYCAARSTRRGNEYDYWGQGTQVTVSS", "polyreactivity (PSR sort gate)": "high polyreactivity"}
{"sequence": "QDQLVESGGGLVQAGGSLRLSCAASGSTFAFKTMGWYRQAPGKERELVAGISSNGGRTYYADSVKGRFTISRDNAKNTVYLQMNSLKPEDTAVYYCNALRRYVSVRPTKSDYWGQGTQVTVSS", "polyreactivity (PSR sort gate)": "high polyreactivity"}
{"sequence": "QVQLVESGGGLVQAGGSLRLSCAASGSIFDVNAMGWYRQAPGKERELVASIDNSGTTNYADSVKGRFTISRDNAKNTVYLHMNSLKPEDTAVYYCAKDASLEYSRWGGDYWGQGTQVTVSS", "polyreactivity (PSR sort gate)": "low polyreactivity"}
{"sequence": "QVQLVESGGGLVQAGGSLRLSCAASGSNFRGNAKGWSRQAPGKERELVAAISKSGGSTYYADSVKGRFTISRDNAKNTVYLQMNSLKPEDTAVYYCAARTTYLYGMYYWGQGTQVTVSS", "polyreactivity (PSR sort gate)": "low polyreactivity"}
{"sequence": "QVQLVESGGGLVQAGGSLRLSCAASGRTFRDNAMGWYRQAPGKERELVAAISWSGGSTYYADSVKGRFTISRDNAKNTVYLQMNSLKPEDTAVYYCAASGYYRYTPFRYDHWGQGTQVTVSS", "polyreactivity (PSR sort gate)": "low polyreactivity"}
{"sequence": "QVQLVESGGGLVQAGGSLRLSCAASGSTFPVYAMGWYRQAPGKERELVATISYSGGSTNYADSVKGRFTISRDNAKNTVYLQMNSLIPEDTAVYYCAARKVNRGSGGYDSWGQGTQVTVSS", "polyreactivity (PSR sort gate)": "high polyreactivity"}
{"sequence": "QVQLVESGGGLVQAGGSLRLSCAASGRTFRTYAMGWYRQAPGKERELVAAISFSDGSTYYADSVKGRFTISRDNAKNTVYLQMNSLKPEDTAVYYCAKEYEYPYYIRYQVGYDFDYWGQGTEVTVSS", "polyreactivity (PSR sort gate)": "low polyreactivity"}
{"sequence": "QVQHVESGGGLVQAGCSLRLCCAASGSTFGGYAMGWSSQAHGNERELVAGITIAVCSTYYADSVKGRFTISRDNAKNTVYLQMNSLKPEDTAVYYCAADGLSWYNYWGPGTQVTVSS", "polyreactivity (PSR sort gate)": "high polyreactivity"}
{"sequence": "QVQLVESGGGLVQAGGSLRLSCAASGFTLGLYAMGWYRQAPGKERELVAAITAGGDSTDYADSVKGRFTISRDNAKNTVYLQMNSLKPEDTAVYYCAAPSYWLYYYILDSSDYWGQGTQVTVSS", "polyreactivity (PSR sort gate)": "high polyreactivity"}
{"sequence": "QVQLVESGGGLVQAGGSLRLSCAASGSIFLYNAMGWYRQAPGKERELVAAISASGGSTYYADSVKGRFTISRDNAKNTVYLQMNSLKPEDTAVYYWAAQYSDYDGFTWPLPPRYDYWGQGTQVTVSS", "polyreactivity (PSR sort gate)": "high polyreactivity"}
{"sequence": "QVQLVETAGGIVQAGGSLRLSCAASGRTNKYYAMGWYRQAPGKEREWVAVISWSGGSTYYADSVKGRFTISRDNAKNTVYLQMNSLKPEETAVYYCAARKRAQQGTRDHDYWGQGTQVTVSS", "polyreactivity (PSR sort gate)": "high polyreactivity"}
{"sequence": "QVQLVESGGGLVQAGGSLRFSCAASGRIFYANAMGWYRQAPGKERELVAAISSGGSTYYADSVKGRFTISRDNAKNTVFLQMNSLKPEDTAVYYCAVYTHKKVRPEYVYWGQGTQVTVSS", "polyreactivity (PSR sort gate)": "low polyreactivity"}
{"sequence": "QVQLVESGGGLVQAGGSLRLSCVASGFNFRGNAMGLYRQAPGKERELVATISSGGNTYYADSVKGRFTISRDNAKNTVYLQMNSLKPEDTAVYYCNASDGLPTKLNVYVEFDYWGQGTQVTVSS", "polyreactivity (PSR sort gate)": "low polyreactivity"}
{"sequence": "QVQLVESGGGLVQAGGSLRLSCADSGRIFRRYAMGWYRQAPGKERELVAAITTSGGSTYYADSVKGRFTISRDNAKNTVYLQMNSLKPEDTAVYYCNARSSVYGHRKGSARIPRYDYWGQGTQVTVSS", "polyreactivity (PSR sort gate)": "high polyreactivity"}
{"sequence": "QVQLVESGGGLVQAGGSLRLSCAASGFIFRYYAMGWYRQAPGKERELVAAISWSGGSTYYADSVKGRFTISRDNAMNTVYLQMNSLKPEDTAVYYCAADRYAILFYAEDYWGQGTQVTVSS", "polyreactivity (PSR sort gate)": "low polyreactivity"}
{"sequence": "QVQLVESGGGLVKAGGSLRLSCAASGSISSGYVMGWYRQAPGKERELVASISYSGTSTYYADSVKGRFTISRDNAKNTVYLQMNSLKPEDTAVYYCAALSRRRFGYWGQGTQVTVSS", "polyreactivity (PSR sort gate)": "high polyreactivity"}
{"sequence": "QVQLVESGGGLVHAGGSLRLSSAPSGSTFQAYAMGWYRAAPGKERELVAAINEGDSRTYYADSVKGRFTISRDNAKNTVYLPMNSQKPEDTAVYYCAIGNFRPYDYWGQGTQVTVSS", "polyreactivity (PSR sort gate)": "low polyreactivity"}
{"sequence": "QVQLVESGGVLVQAGGTLRFSCAPSGLTFVYYTMRWYRQAPGQEREFVAGIDWSGGSTYYADSVKGRFTISRDNAKNTVYLHMNSLKPEDTAVYYCAAAVYYQYCVYRHDYWGKGTQVTVSS", "polyreactivity (PSR sort gate)": "low polyreactivity"}
{"sequence": "QVQLVESGGGLVQAGGSLRLSCAASGLTFPNNGMGWYRQAPGKERELVAAIRSSGGSTYYADSVKGRFTISRDNAKNTVYLQMNSLKPEDTAVYYCNARRRGGYVGRPRYPVAAYDYWGQGTQVTVSS", "polyreactivity (PSR sort gate)": "low polyreactivity"}
{"sequence": "QVQLEESGGGLVQAGGSLRLSCAASGSNFYLNDMGWYRQAPGKEREFVAAIDSRGTSTYYADSVKGRFTISRDNAKNTVYLQMNSLNPEDTAVYYCAADSYALEYDYWGQGTQVTVSS", "polyreactivity (PSR sort gate)": "low polyreactivity"}
{"sequence": "QVQLVESGGGLVQAGGSLRLSCAACGSTFGSYAMGWYRQAPGKERELVADITSGGSTYYADSVKGRFTISRDNAKNTVYLQMNSLKPEDTAVYYCAVEGWWDDYKSGAGEFNYWGQGTQVTVSS", "polyreactivity (PSR sort gate)": "low polyreactivity"}
{"sequence": "QVQLVESGGGLVQAGGSLRLSCAASGSIFSDYGMGWYRQAPGKERELVAGISWNGTSTYYADSVKGRFTISRDNAKNTVYLQMNSLKPEDTAVYYCAATFEGGISDLLDLDYWGQGTQVTVSS", "polyreactivity (PSR sort gate)": "low polyreactivity"}
{"sequence": "LVQLVESGGGLVQAGGSLRLSCAASGFTFPDYAMGWYRPAPGKERELVAAISSDGSTYYADSVKGRFTISRDNAKNTVYLQMNSLKPEDTAVYYCAAYVVWLYGYDYWGQGTQVTVSS", "polyreactivity (PSR sort gate)": "low polyreactivity"}
{"sequence": "QVQLVESGGGLVQAGGSLRLSCAASGFIFETNAMGWYRQAPGKERELVAAISSRGGSTYYADSVKGRFTISRDNAKNTVYLQMNSLKPEDTAVYYCAAKLVVSYGQEYDYWGQGTQVTVSS", "polyreactivity (PSR sort gate)": "low polyreactivity"}
{"sequence": "QVQLVESGGRLVQAGGSLRLSCAASGFIFRKYAMGWYRQAHGKVRELVAGIDWSGCRTYYADSVKGRFTISRDNAKNTVYLQMNSLKPEDTAVYYCNSVFRARPDYDYWGVGTQVTVSS", "polyreactivity (PSR sort gate)": "high polyreactivity"}
{"sequence": "QVQLVESGGGLVQAGGSLRLSCAASGGIYYYAMGWYRPAPGKERELVSAISSGGGNTNYADSVKGRFTISRDNAKNTVYLQMISLKPEDTAVYYCYADRAVVLSTTVWGEYDYWGQGTQVNVSS", "polyreactivity (PSR sort gate)": "low polyreactivity"}
{"sequence": "QVQVVESGGGLVQAGGSLRLSCAASGSTFGYYAMGWYRQAPGKERELVAAISGTGSTYYADSVKGRFTISRDNAKNTVFLQMNSLKPEDTAVYYCAAYPRGSQRYNYWGQGTQVTVSS", "polyreactivity (PSR sort gate)": "high polyreactivity"}
{"sequence": "QVQLVESGGGLVQAGGSLRLSWAASGSIFFYYTIGWYRQAPGKERELVAAISVGGSTYYADSVKGRFTISRDNAKNTVYLQMNSLKPEDTAVYYSNAVPAKGFVTVVRYYYWGQGTQVTVSS", "polyreactivity (PSR sort gate)": "low polyreactivity"}
{"sequence": "QVQLVESGGGLVQAGGSLRLSCAASGFIFVGNDMGWYRQAPGKERELVAAISSGGSTYYADSVKGRFTISRDNAKNTVYLQMNSLKPEDTAVYYCAATYVYYLYGYWGQGTQVTVSS", "polyreactivity (PSR sort gate)": "low polyreactivity"}
{"sequence": "QVQLVESGGGLVQAGGSLRLSCAASGRTFLGYAMGWYRQAPGKERELVAAINRSGGRTYYADSVKGRFTISRDNAKNTVYLQMNSMKQEDTSVYYCAAYTSYSAYDYWGQGTQVTVSS", "polyreactivity (PSR sort gate)": "high polyreactivity"}
{"sequence": "QVQLVESGGGLVQAGGSLRLSCAASGSTFKVNAMGWYRQAPGKERELVAAISRGGSTYADSVKGRFTISRDNAKNTVYFQINSLKPEDTAVYYCAAKSRYFQPDEYYYWGQGTQVTVSS", "polyreactivity (PSR sort gate)": "high polyreactivity"}
{"sequence": "QVQLVESGGGLVQAGGSLRLRCAASGSTIRCYAMGWYRQAPGKERELVAAIRRGGSTYYADSVKGRFTISRDNAKNTVYLQKNSLKPEVTAVYYCAAEPGYYSRQDYRVYRLYYWGQGTQVTVSS", "polyreactivity (PSR sort gate)": "high polyreactivity"}
{"sequence": "QVQLVESGGGLVQAGGSLRLSCAASGSTFRSYVMGWYRQAPGKERELGAGISYRGGTTYYADSVKGRFTISRDNAKNTVYLQMNSLKPEDTAVYNCAADSTPYVLSGNYDYWGQGTQVTVSS", "polyreactivity (PSR sort gate)": "low polyreactivity"}
{"sequence": "QVQLVESGGGLVQAGGSLRLSCAASGSTFSGYAMGWYRQAPGKERELVAAISWSGGRTYYADSVKGRFTISRDNAKNTVYLQMNSLKPEDTAVYYCAAVRKSAYEYWGQGTQVTVSS", "polyreactivity (PSR sort gate)": "high polyreactivity"}
{"sequence": "QVQLVESGGGLVQAGGSLRLSGAASGRIFYSNAMGWYRQAHGKERELVAAITRAGSTNYADSVKGSFTISRDIAKNTVYLQMNSLKPDDTAVYDCAATYGCSVFEYDYWGQGTQVTVSS", "polyreactivity (PSR sort gate)": "low polyreactivity"}
{"sequence": "QVQLVESGAGLVQAGGSLGLSCAASGSNFIYNAMGLYRQAPGKERELVAAITDRSTKYADSVKGRFTISRDNAKYSGYVQMNSLKTEDTAVYYSNAYVWRWRYDSWGQVTQVTVSS", "polyreactivity (PSR sort gate)": "low polyreactivity"}
{"sequence": "QVQLVESGGGLVQAGGSLRLSCAASGLIFRWYAMGWYRQAPGKEWELVAAISRRGGTTNYADSVKGRFTISRDNAKKTVYLQMNSLKPEDTAVYYCAADYQSVGGAEYDYWGQGTQVTVSS", "polyreactivity (PSR sort gate)": "high polyreactivity"}
